Laboratory results from patent US20140186363A1 (UNIVERSITY OF ZURICH, published 2014).

Legend:
[1] = target: T1, MAGEA4 (UniProt P43358 1-317, limits assumed); assay: Western blot of recombinant protein, anti-human IgG-HRP
T1 construct: also called recombinant MAGEA4-protein; CT1.4
T1 sequence (looked up): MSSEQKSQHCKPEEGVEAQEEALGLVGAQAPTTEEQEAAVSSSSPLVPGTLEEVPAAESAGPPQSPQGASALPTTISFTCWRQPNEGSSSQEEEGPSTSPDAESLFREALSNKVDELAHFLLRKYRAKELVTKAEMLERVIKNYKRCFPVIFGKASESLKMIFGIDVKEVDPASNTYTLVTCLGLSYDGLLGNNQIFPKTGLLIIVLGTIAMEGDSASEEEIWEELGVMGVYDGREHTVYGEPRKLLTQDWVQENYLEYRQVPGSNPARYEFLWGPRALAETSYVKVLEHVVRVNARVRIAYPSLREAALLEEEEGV
Experimental: Recombinant MAGEA3- and recombinant MAGEA4-protein were separated in SDS-PAGE and blotted onto membranes. Membranes were incubated with human antibodies 122G3 or 32H2. Binding of human antibodies to proteins on the membrane was evaluated using an HRP-labeled goat anti human IgG (Jackson Immunoresearch, Milan Analytica AG, Rheinfelden, Switzerland). The results are depicted in FIG. 3.

[2] = target: T2, MAGEA3 peptide no 7; assay: ELISA on plate-coated 20mer peptide, antibody at 1 µg/ml, anti-human IgG Fc-HRP
T2 construct: also called MAGEA3 aa 61-80
T2 peptide: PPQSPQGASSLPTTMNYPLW
Experimental: (§1) 20mer peptides spanning the entire MAGEA3 protein with 10 aa overlaps shared by each adjacent peptide (Peptides&Elephants, Nuthetal, Germany) were used to coat Maxisorp ELISA plates (Nunc, Rochester, N.Y.). As control a 20mer peptide representing amino acids 40-21 from the NY-ESO-1 protein was used (rev). The numbering of amino acids of MAGEA3 is based on SEQ ID No:41.
(§2) Human recombinant antibody was used at a concentration of 1 μg/ml. Bound human antibody was detected using horseradish peroxidase-conjugated goat anti-human IgG Fc-gamma specific antibodies (Jackson ImmunoResearch, Europe Ltd., Cambridgeshire, UK).

[3] = target: T3, MAGEA3 peptide no 8; assay: as above
T3 construct: also called MAGEA3 aa 71-90
T3 peptide: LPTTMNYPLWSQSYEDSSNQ
Experimental: as §1, §2

[4] = target: T4, MAGEA3 peptide no 24; assay: as above
T4 construct: also called MAGEA3 aa 231-250
T4 peptide: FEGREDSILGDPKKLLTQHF
Experimental: as §1, §2

[5] = target: T5, MAGEA3 peptide no 13; assay: peptide ELISA (coated 20mer)
T5 construct: also called MAGEA3 aa 121-140
T5 peptide: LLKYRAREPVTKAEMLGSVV
Experimental: as §1, §2

[6] = target: T6, MAGEA3 peptide no 1; assay: peptide ELISA (coated 20mer)
T6 construct: also called MAGEA3 aa 1-20
T6 peptide: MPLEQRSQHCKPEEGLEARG
Experimental: as §1, §2

[7] = target: T7, MAGEA3 peptide no 6; assay: peptide ELISA (coated 20mer)
T7 construct: also called MAGEA3 aa 51-70
T7 peptide: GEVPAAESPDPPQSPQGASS
Experimental: as §1, §2

[8] = target: T8, MAGEA3 peptide no 3; assay: peptide ELISA (coated 20mer)
T8 construct: also called MAGEA3 aa 21-40
T8 peptide: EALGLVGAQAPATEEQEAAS
Experimental: as §1, §2

[9] = target: T9, MAGEA3 peptide no 18; assay: peptide ELISA (coated 20mer)
T9 construct: also called MAGEA3 aa 171-190
T9 peptide: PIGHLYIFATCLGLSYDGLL
Experimental: as §1, §2

[10] = target: T10, MAGEA3 peptide no 28; assay: peptide ELISA (coated 20mer)
T10 construct: also called MAGEA3 aa 271-290
T10 peptide: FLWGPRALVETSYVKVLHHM
Experimental: as §1, §2

[11] = target: T11, MAGEA3 peptide no 19; assay: peptide ELISA (coated 20mer)
T11 construct: also called MAGEA3 aa 181-200
T11 peptide: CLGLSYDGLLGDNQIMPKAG
Experimental: as §1, §2

[12] = target: T12, MAGEA3 peptide no 29; assay: peptide ELISA (coated 20mer)
T12 construct: also called MAGEA3 aa 281-300
T12 peptide: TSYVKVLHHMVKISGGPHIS
Experimental: as §1, §2

[13] = target: T13, MAGEA3 peptide no 2; assay: peptide ELISA (coated 20mer)
T13 construct: also called MAGEA3 aa 11-30
T13 peptide: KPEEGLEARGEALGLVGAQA
Experimental: as §1, §2

[14] = target: T14, MAGEA3 peptide no 14; assay: peptide ELISA (coated 20mer)
T14 construct: also called MAGEA3 aa 131-150
T14 peptide: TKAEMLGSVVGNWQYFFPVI
Experimental: as §1, §2

[15] = target: T15, MAGEA3 peptide no 10; assay: peptide ELISA (coated 20mer)
T15 construct: also called MAGEA3 aa 91-110
T15 peptide: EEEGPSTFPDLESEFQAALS
Experimental: as §1, §2

[16] = target: T16, MAGEA3 peptide no 20; assay: peptide ELISA (coated 20mer)
T16 construct: also called MAGEA3 aa 191-210
T16 peptide: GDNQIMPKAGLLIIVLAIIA
Experimental: as §1, §2

[17] = target: T17, MAGEA3 peptide no 21; assay: peptide ELISA (coated 20mer)
T17 construct: also called MAGEA3 aa 201-220
T17 peptide: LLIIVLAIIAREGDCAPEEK
Experimental: as §1, §2

[18] = target: T18, MAGEA3 peptide no 27; assay: peptide ELISA (coated 20mer)
T18 construct: also called MAGEA3 aa 261-280
T18 peptide: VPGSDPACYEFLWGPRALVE
Experimental: as §1, §2

[19] = target: T19, MAGEA3 peptide no 15; assay: peptide ELISA (coated 20mer)
T19 construct: also called MAGEA3 aa 141-160
T19 peptide: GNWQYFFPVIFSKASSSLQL
Experimental: as §1, §2

[20] = target: T20, MAGEA3 peptide no 12; assay: peptide ELISA (coated 20mer)
T20 construct: also called MAGEA3 aa 111-130
T20 peptide: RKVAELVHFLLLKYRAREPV
Experimental: as §1, §2

[21] = target: T21, MAGEA3 peptide no 22; assay: peptide ELISA (coated 20mer)
T21 construct: also called MAGEA3 aa 211-230
T21 peptide: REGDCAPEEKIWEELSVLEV
Experimental: as §1, §2

[22] = target: T22, MAGEA3 peptide no 9; assay: peptide ELISA (coated 20mer)
T22 construct: also called MAGEA3 aa 81-100
T22 peptide: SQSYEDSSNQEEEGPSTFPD
Experimental: as §1, §2

[23] = target: T23, MAGEA3 peptide no 30; assay: peptide ELISA (coated 20mer)
T23 construct: also called MAGEA3 aa 291-310
T23 peptide: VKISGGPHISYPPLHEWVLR
Experimental: as §1, §2

[24] = target: T24, MAGEA3 peptide no 17; assay: peptide ELISA (coated 20mer)
T24 construct: also called MAGEA3 aa 161-180
T24 peptide: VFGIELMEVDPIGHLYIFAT
Experimental: as §1, §2

[25] = target: T25, MAGEA3 peptide no 26; assay: peptide ELISA (coated 20mer)
T25 construct: also called MAGEA3 aa 251-270
T25 peptide: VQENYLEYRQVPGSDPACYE
Experimental: as §1, §2

[26] = target: T26, MAGEA3 peptide no 25; assay: peptide ELISA (coated 20mer)
T26 construct: also called MAGEA3 aa 241-260
T26 peptide: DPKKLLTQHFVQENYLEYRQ
Experimental: as §1, §2

[27] = target: T27, MAGEA3 peptide no 11; assay: peptide ELISA (coated 20mer)
T27 construct: also called MAGEA3 aa 101-120
T27 peptide: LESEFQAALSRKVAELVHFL
Experimental: as §1, §2

[28] = target: T28, MAGEA3 peptide no 5; assay: peptide ELISA (coated 20mer)
T28 construct: also called MAGEA3 aa 41-60
T28 peptide: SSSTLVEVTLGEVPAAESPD
Experimental: as §1, §2

[29] = target: T29, MAGEA3 (human, UniProt P43357 1-314); assay: ELISA, plate coated with recombinant MAGEA3, serial dilution of antibody
T29 construct: also called recombinant MAGEA3; MAGEA3-protein

B1: 122G3 (antibody, V domains shown)
VH: QVQLVQSGAEVKKPGASVKVSCKASGYTFTNYAIHWVRQAPGQRLEWMGWINAGKGNTKYSQKFQGRVTITRDTSADTTYMELSSLRSEDTAVYFCAQAGLSSGLYRDYWGQGTPVTVSS
VL: EIVMTQSPATLSVSPGERATLSCRASQSVSSDLAWYQQKRGQAPRLLIYGASTRATGIPARFSGSGSGTEFTLTISSLQSEDFAVYWCQQYNDWPLTFGGGTKVEIN
notes: Patient-derived human antibody made recombinantly; also called human monoclonal antibody 122G3
[1]
  binding result: no binding
[2]
  binding result: binds
[3]
  binding result: binds
[4]
  binding result: binds
[5]
  binding result: no binding (tested: 1 µg/ml)
[6]
  binding result: no binding (tested: 1 µg/ml)
[7]
  binding result: no binding (tested: 1 µg/ml)
[8]
  binding result: no binding (tested: 1 µg/ml)
[9]
  binding result: no binding (tested: 1 µg/ml)
[10]
  binding result: no binding (tested: 1 µg/ml)
[11]
  binding result: no binding (tested: 1 µg/ml)
[12]
  binding result: no binding (tested: 1 µg/ml)
[13]
  binding result: no binding (tested: 1 µg/ml)
[14]
  binding result: no binding (tested: 1 µg/ml)
[15]
  binding result: no binding (tested: 1 µg/ml)
[16]
  binding result: no binding (tested: 1 µg/ml)
[17]
  binding result: no binding (tested: 1 µg/ml)
[18]
  binding result: no binding (tested: 1 µg/ml)
[19]
  binding result: no binding (tested: 1 µg/ml)
[20]
  binding result: no binding (tested: 1 µg/ml)
[21]
  binding result: no binding (tested: 1 µg/ml)
[22]
  binding result: no binding (tested: 1 µg/ml)
[23]
  binding result: no binding (tested: 1 µg/ml)
[24]
  binding result: no binding (tested: 1 µg/ml)
[25]
  binding result: no binding (tested: 1 µg/ml)
[26]
  binding result: no binding (tested: 1 µg/ml)
[27]
  binding result: no binding (tested: 1 µg/ml)
[28]
  binding result: no binding (tested: 1 µg/ml)
[29]
  EC50: 0.023 nM
  EC50 (read off the curve): ~0.02 nM
